What was measured:
[1] = target: exemplary TAT frataxin fusion molecule (HIV-1) (UniProt Q16595); assay: PK sandwich ELISA in human plasma, antibody as capture, HRP anti-frataxin mAb detection
[2] = target: exemplary TAT frataxin fusion molecule (HIV-1) (UniProt Q16595); assay: immunopurification from plasma on antibody-coated magnetic beads, trypsin digest, LC/MS of peptide …
[3] = target: exemplary TAT frataxin fusion molecule (HIV-1) (UniProt Q16595); assay: bridging (ADA) assay in human plasma: antibody titrated with biotinylated and sulfo-tagged TAT frataxin fusion molecule, streptavidin plate, ECL read-out

## polyclonal anti-TAT E8332 polyclonal antibody
[1]
  Mean OD at plasma conc. 0.400 ng/mL: 0.075 OD
  Mean OD at plasma conc. 0.800 ng/mL: 0.113 OD
  Mean OD at plasma conc. 1.60 ng/mL: 0.165 OD
  Mean OD at plasma conc. 3.20 ng/mL: 0.322 OD
  Mean OD at plasma conc. 6.40 ng/mL: 0.631 OD
  Mean OD at plasma conc. 12.8 ng/mL: 1.08 OD
  Mean OD at plasma conc. 25.6 ng/mL: 1.83 OD
  Mean OD at plasma conc. 51.2 ng/mL: 3.1 OD
  S/N at plasma conc. 0.400 ng/mL: 1.5
  S/N at plasma conc. 0.800 ng/mL: 2.3
  S/N at plasma conc. 1.60 ng/mL: 3.4
  S/N at plasma conc. 3.20 ng/mL: 6.6
  S/N at plasma conc. 6.40 ng/mL: 12.9
  S/N at plasma conc. 12.8 ng/mL: 22.1
  S/N at plasma conc. 25.6 ng/mL: 37.3
  S/N at plasma conc. 51.2 ng/mL: 63.3
[2]
  LC/MS signal after immunopurification, fold higher than with anti-TAT antibody ab63957: 5 fold higher
[3]
  EC50 (read off the curve): 20 mg/L

From patent US20230061973A1 (LARIMAR THERAPEUTICS, published 2023)
